From the supplement of paper PMC9170038

Test system: K4 kissing-loop RNA reporter
Assay: apparent KD of K4 kissing-loop reporter; higher = weaker reporter binding
Conditions: Eterna round: R107
Procedure: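 RNA-MaP round R107: designed RNA switches with theophylline, tryptophan, arginine or FMN aptamers are transcribed on-chip within common flanks. They are titrated with a labelled K4 kissing-loop RNA reporter in RNA-MaP buffer (100 mM Tris pH 7.5, 80 mM KCl, 4 mM MgCl2), without ligand or with the indicated ligand. Median apparent KD per design.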

[1] = input ligand: theophylline 20 uM
[2] = input ligand: tryptophan 2.4 mM
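Also: bound reporter read as fluorescence of individual clusters on recovered sequencing chips by microscopy, with normalized cluster intensities fitted with a binding model.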

Sequence | apparent KD of K4 kissing-loop reporter (input ligand: FMN 200 uM) [nM] | apparent KD of K4 kissing-loop reporter (input ligand: arginine 13.2 mM) [nM] | apparent KD of K4 kissing-loop reporter (input ligand: none) [nM] | apparent KD of K4 kissing-loop reporter [1] [nM] | apparent KD of K4 kissing-loop reporter [2] [nM]
GGUAGGGCAGCUGCGGAAACGCAGCAUAUCGAGGAUAUCGGGAAACCGAGAAGGCGAGUAGUGAUGUUACUGGUUUAGCCCUACC | 444 | 167 | 191 | 196 | 173
GGUGCUGUCUGUGCCGCCCUCCUCGUUCCUCGAGGACCGGUACGGCCGCCACUCGAGUGAUGUUCGGGUAGCGAUCCCUGCUAGC [Bdazzled - #17 Exc. Tryptophan A] | 221 | 176 | 207 | 191 | 204
GGUUUCUGAAGUGAUGUUUCAGGAUGACACAAGGAUAUAUAUGGCGAUAGAAGGUGUGCGUCGCAUGACGAACGACGUCAGCUUC [theeternabot_exclusion_KL_FMN_A_37] | 94.8 | 80.9 | 120 | 123 | 93
GUACCUUGGAAACAAGGACCGCUAACCGAAGGAGCGCGUGAAAACGCAGGUAGGUCGCGGUAGCGGAGUGAUGUUCCGCGAGAGG [Excluson Arginine A GF 14] | 166 | 235 | 196 | 268 | 165
GUAGACGUACCUUCAGUGAUGUUGAAGGAUACCAGAUGUUAUCACAUCCCUUGGCAGCCUUGGGAUAACAGUGAGUCGGAAUAUG [Essoaran] | 170 | 142 | 184 | 159 | 168
GUAGAUAGGCAACAUCCCUAGUCUACAGACUAGGAUAUCAGGAAACUGAGAAGGAGUCUCCUUGCAGUGAUGUUGCAAGAAUAAU [[F]''-[K]'-[F]'-[F1]-[F2]-[K1]-[K2]_Design5] | 185 | 181 | 200 | 83.6 | 161
GUAGAUAGGCUACAUCUCUAGUCUAUAGACUAGGAUAUCAGGAAACUGAGAAGGAGUCUCAUUGGAGUGAUGUUCCAAGAAUAAU [KL-SSFMN-A15] | 120 | 115 | 114 | 133 | 85.1
GUAGGAUGAGGAGGAGGAUGAAUUACUGAAGGAGCGCAGAGAAAUGCAGGUAGGUCGCGGUAAAGAAGUAUAGUGAUGUUAUAUC [#09 K4 Arginine A Same State] | 775 | 308 | 657 | 526 | 598
GUAUCGCUAGGAGGAUAUUUCAAAUAAUAAAUAAAUGGAUAUACGGAGUGAUGUUCCGAUUUACGGAAAGAAGGCCUAGUGAUAC [FMN B 1] | 136 | 179 | 194 | 190 | 171
GUAUCGCUAGGAGGAUAUUUCAAAUAAUAAAUAAAUGGAUAUUCGGAGUGAUGUUCCGAUUUACGGAAAGAAGGCCUAGUGAUAC [FMN B 2] | 135 | 143 | 157 | 137 | 150
GUCGGGACUCGAGGAUAUCAGUGGAGGCCAGUGAUGUUGGCCGUCCCGGUAGUUAAAAUUUUACCCUGAGAAGGCGAUUUCUGUC [Veceinusqu] | 142 | 128 | 133 | 131 | 138
GUGCAGUGAUGUUGCACGAGGAAAGACGAUACCAGCCGUAAAUAAGGCCCUUGGCAGCGUGGGCUAGCAUAAAGUACGCUAGUCU [Mara] | 111 | 115 | 109 | 94 | 97.1
GUGCGGCUAGUGAUGUUGGUUGCGUGGGAAGGAGCGCAGAAACAUGCAGGUAGGUCGCCCACACCUCUGAAAGAAGGUUAAUUCA [Biistian] | 218 | 140 | 203 | 231 | 207
GUGCGGUGGAGGUUACCGCUACUCUGAGAAGGAGCGCAGAUGACUGCAGGUAGGUCGCUUAGAGCUUGCAGUGAUGUUGCAAGUU [Anquatbiat] | 199 | 147 | 159 | 132 | 177
GUUACGCAUGGAAGGAGCGCAGGCUCAACAAGUAGCUCAGUGAUGUUGAGCAUAUUAAUUCUGCAGGUAGGUCGCCAUGUGUAAC [Ex Arginine B K4 26] | 787 | 471 | 612 | 802 | 646
GUUACGCAUGGAAGGAGCGCUCUCAUACUUAAUAACACAGUGAUGUUGUGAAUUUGUAUAAAGCAGGUAGGUCGCCAUGUGUAAC [Ex Arginine B K4 7] | 417 | 323 | 424 | 379 | 346
GUUACGCAUGGAAGGAGCGCUCUCCGGUUGAUCGACACAGUGAUGUUGUGGUUCUACCGUAAGCAGGUAGGUCGCCAUGUGUAAC [Ex Arginine B K4 14] | 730 | 449 | 936 | 966 | 828
UAACUUGCAGUGAUGUUGCAAGAACUGGAUACCAGCAUGGAAACAUGCCCUUGGCAGCCAGAAGCUGGCUGCUUGUAAUGUCAGC [Design6] | 162 | 158 | 170 | 131 | 138
UAAGAAUAACAUGCAGUGAUGUUGCAUGUACGAGGACCGGUACGGCCGCCACUCGAGUCCUCGAACAUGCACCGAGGAAUAACAA [(H,1)-(H,2)-(Trp1)-(Trp2)-(T)'-(H)'-(T)''] | 201 | 118 | 116 | 161 | 402
UAAGAAUAAGUAGCAGUGAUGUUGCUACUGCGAGGACCGGUACGGCCGCCACUCGAGUCCUCGAAGCGUCACUGAACGAGGAAUA [whbob_SS_Tryp_A_m13] | 319 | 283 | 328 | 433 | 187
UAAGUCUUAUCGGCCGCCACUCAUUACACGAAGUGAUGUUUCGGGUUUUAGACAAAUAAUUUUUGGAGGACCGGGAUACGAGAAA [theeternabot_sameState_KL_Trp_B_49] | 162 | 113 | 139 | 148 | 114
UAAUAAAUUCCAGCGAUAUCGCUCUUCGAAGGAGCGGGCGAAAGUCCAGGUAGGUCGCGGAGAGUGAUGUUCUUUGCGGCGCUGG [whbob_Ex_Arginine_A_2t134] | 408 | 315 | 400 | 407 | 244

Sequence | apparent KD of K4 kissing-loop reporter (input ligand: FMN 200 uM) [nM] | apparent KD of K4 kissing-loop reporter (input ligand: arginine 13.2 mM) [nM] | apparent KD of K4 kissing-loop reporter (input ligand: none) [nM] | apparent KD of K4 kissing-loop reporter [1] [nM] | apparent KD of K4 kissing-loop reporter [2] [nM]
UAAUCCUAGUGAUAAUAAUCAAGUGGUGGGCGAGGACCGGUACGGCCGCCACUCGAAAAUGCAGUGAUGUUGUAAUCCGGAUAAU [Exclusion - Tryptophan A (Freestyle 5)] | 798 | 874 | 1080 | 872 | 450
UAAUCCUAGUGAUAAUAAUCAAGUGGUGGGCGAGGACCGGUACGGCCGCCACUCGAAUAUGCAGUGAUGUUGUAAUCCGGAUAAU [Exclusion - Tryptophan A (Freestyle 6)] | 667 | 926 | 919 | 894 | 594
UAAUGCAUGACGGCCGCCACUAGUACUGGAGUGAUGUUGUGGUACGGCGGCAGUAUAGGGUGGACUAGGACCGGGUCAUGCAUAU [KL-XTryp-B11 #analogue] | 598 | 443 | 597 | 547 | 567
UAAUUUAUGUCUUUAAUAUAAUUUUCAGAUACCAGUGAUUAUUAACACCCUUGGCAGCUGUAUAGAGUGAUGUUCUUAUGCUUAA [JR_ExcTheophyA_Sub009] | 213 | 314 | 237 | 321 | 156
UAAUUUAUUUCUUUUAUAUAAUAAUCAGAUACCAGUGAUUAAUGUCACCCUUGGCAGCUGUAUAGAGUGAUGUUCUAAUGCUUAA [JR_SSTheophyA_Sub022] | 176 | 169 | 142 | 233 | 147
UACAUAUCACUUUUUCUACAAUUAUUUAGUCAGGAUAUCGAUUAAACGAGAAGGGACAUUAUCAAGUGAUGUUUGAUAAUUCAAA [JR_Nu_SSFMNA_Sub028] | 156 | 129 | 118 | 159 | 124
UACCUAUUAUUAACACUAUAUACAACUGAAGGAGCGACAAUAAAGUCAGGUAGGUCGCAGAAUUAAUGAGUGAUGUUCAUUUUUA [JR_ExcArginiA_Sub014] | 84.3 | 136 | 95.3 | 110 | 59.7
UAGUCAUACAGAGGAUAUCGUAUGAGUGAUGUUCAUAUGCGUACAUCAACUUGAUGUACACCUAGACGAGAAGGCUGUAUGACUA [FMB B SS t6a] | 172 | 199 | 252 | 212 | 227
UAGUCCUAGUGAUCCUUAUCAAGUGGUGGGCGAGGACCGGUACGGCCGCCACUCGAAUAUGCAGUGAUGUUGUAAUCCGGAUAAU [Exclusion - Tryptophan A (Freestyle 10)] | 596 | 511 | 727 | 846 | 417
UAUGUACACUGGUAGUGGUACAUCGAGGAAGGAGCGUGCGCAGGCACAGGUAGGUCGCCUCAGCGCACGAGUGAUGUUCGUGGGC [Ceaqu] | 308 | 205 | 358 | 262 | 288
UAUUCUGUUCGAAAGAACGGAAUUUCGGAAGGAGCGCGAGAAAUCGCAGGUAGGUCGCCGAAAUUAUUAGGUAGUGAUGUUACCU [Arginine A K4 6] | 125 | 99.8 | 120 | 101 | 115
UCACGUGCCAGUGAUGUUGGCGUACGUGAUACCAGACGAAUAAAAGUCCCUUGGCAGCACAAAUAUGCCAAGUUAGAUGUAUGAU [Exclusion Theophylline A GF 2] | 125 | 122 | 121 | 116 | 116
UCCCGAGUGAUGUUUGGCUGAUGGAGUGAUACCAGUCCCUAGACUGACCCUUGGCAGCACGACUUGUACCAGGCGGAUCACCCUG [theeternabot_exclusion_KL_Theo_A_5] | 479 | 260 | 423 | 431 | 366
UCCUAGGCUCGAAAGAGCCUAGGAUUGACUCAGGAUAUCCGGAAACGGAGAAGGGAGUCACUAGUGAUGUUAGGGAUUCCCUAUU | 312 | 91.2 | 100 | 85.9 | 94.2
UCCUAUACCCUUCCCGGACGCCGUGGAGAUACCAGCCACGUAGCGGGCCCUUGGCAGCUCGAGUGAUGUUCGAGAUCGUCAGGAU [Veteve] | 136 | 124 | 127 | 128 | 135
UCCUGCAAUCCGCCACGAAAGUGGAUGGAUACCAGAGUCGAAAGACUCCCUUGGCAGCCAGUGAUGUUGGAAGCAGGUAAAUAAA | 819 | 645 | 715 | 656 | 596
UCCUGCAAUCUGCCACGAAAGUGGAUUGAUACCAGAGUCGAAAGACUCCCUUGGCAGCGAGUGAUGUUCGUAGCAGGUAAAUAAA [MatMod 6 - Jieux - Exclusion - Theophylline A] | 203 | 221 | 206 | 218 | 185
UCCUGCAAUCUGCCACGAAAGUGGAUUGAUACCAGAGUCGAAAGACUCCCUUGGCAGCGAGUGAUGUUCGUUGCAGGUAAAUAAA [MatMod 7 - Jieux - Exclusion - Theophylline A] | 181 | 178 | 175 | 170 | 149
UCGAAAUGCGUCUCCUAGUUUCUCCGGGAAGGAGCGUGGAUAACCGCAGGUAGGUCGCCCGGGAGCCGGACCAGUGAUGUUGGUC [Exclusion Arginine A Gf 30] | 181 | 211 | 197 | 207 | 164
UCGAACGAUGGAAGGAGCGCUCGUCAGUCCUGCGAGUGAUGUUCGUGGGUAAAUAGUCGCGAGCAGGUAGGUCGCCAUCUUGAGC [Indiermaar] | 130 | 120 | 131 | 128 | 125
UCGAUGGUCAGCGAUACCAGCCCAGUGAUGUUGGGCACAUGGUUGCGGAAAAUCCCAUUGGGCCCUUGGCAGCGCUUGCAUGGGU [Titiquesan] | 130 | 122 | 123 | 136 | 116
